Measured values taken from EP2074145B1.

Legend:
[1] = target: biotinylated complete Aβ1-42 peptide (Bachem) (UniProt P05067); experiment: ELISA with biotinylated complete Aβ1-42 peptide
[2] = target: T1, peptide 13 (aa 13-21 of Aβ); experiment: ELISA with biotinylated peptide Amyloid beta 13-21
T1 sequence (peptide, biotinylated (site not stated)): HHQKLVFFA

[3] = target: T1, peptide 13 (aa 13-21 of Aβ); experiment: ELISA with biotinylated peptides (Mimotopes protocol)

Sequence of biotinylated complete Aβ1-42 peptide (Bachem) (P05067 672-713 limits assumed): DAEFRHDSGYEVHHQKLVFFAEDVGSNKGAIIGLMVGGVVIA

O.D [1]: 0.9 O.D
O.D [2]: 1.23 O.D
percent higher affinity than to the whole Aβ1-42 protein [3]: 36%
Substance: humanized anti-human amyloid beta monoclonal antibody hC2
